Source: PMC12328794 (2025)

Target: cytosolic domain of human Fis1 (Fis1_ΔTM, residues 1−123) (human, UniProt Q9Y3D6 1-123)
Test: SPR

B1: Bap31_CC2 D224K (domain or fragment)
chain: LDVGNAEVKLEEENRSLKADLQKLKDELASTKQKLEKAENQVLAMRKQSEGLTKEYKRLLEEHAKLQAAVDGPMDKKEE
Kd: 156 µM
